These results are taken from the supplement of paper PMC9170038.

This series relates to MS2 coat protein. The experiment in a line: apparent KD of MS2 coat protein; designed switch direction (-1 OFF switch, 1 ON switch): -1; higher = weaker reporter binding. In short, it runs like this:
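Designed RNA switches were transcribed on Illumina chips by stalled E. coli RNA polymerase and titrated with SNAP-549-labelled MS2 coat protein from 0.7 or 1.5 nM, doubling to 3 µM. Step length ran from 0.8–1.5 h at the lowest concentration to 10–20 min at the highest. The apparent KD is the median over clusters for each design, from curve-fitted normalised cluster fluorescence.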

[1] abbreviates: input ligand: microRNA oligo, concentration not stated.
The mark [2] stands for this setting: Eterna round: R95, input ligand: microRNA oligo, concentration not stated.

Consider “AACCCAAUGGCAGGAUAUAGUAGACGACUCGGUCUAGAAGGGCCGCACAUGACAUGAGGAUCACCCAUGUUUCAUCUGAGGGAC [Eternabot solution 27] (Eterna round: R96, puzzle: Exclusion NG 1)”, for which the “apparent KD of MS2 coat protein” value worked out at 14.1 nM (input ligand: FMN 200 uM), 14 nM under setting [1] and 19.4 nM (input ligand: none).
As to “AACCCGUGUGUCAGGAUAUUGAGUCAGACUGGCUACAAGAAGGGACAUGAGGAUCACCCAUGUACUUAGAGAAA [BmEX4 B.22] (Eterna round: R97, puzzle: Brourd's mod of Exclusion 4)”, the “apparent KD of MS2 coat protein” value runs as follows: (input ligand: FMN 200 uM) 37.8 nM; (input ligand: none) 17.9 nM.
“AACCCUCGUCAAGGAUAUACAUAGAAAAGCUUGGUAGAAGGUGACAUGAGGAUCACCCAUGUAUAAAGUUCGUCCAAUCGAACC [Diesisra] (Eterna round: R96, puzzle: Exclusion NG 1)”: the “apparent KD of MS2 coat protein” value runs as follows: (input ligand: FMN 200 uM) 139 nM; under setting [1], 80.9 nM; (input ligand: none) 110 nM.
As for “AACCCUCGUGUUAGGAUAUCCAGCGUCCGGGCGAGGGAGAAGGGACAUGAGGAUCACCCAUGUUUCGAUGGACA [Xeinesed] (Eterna round: R97, puzzle: Brourd's mod of Exclusion 4)”, the “apparent KD of MS2 coat protein” value was found to be 19.5 nM (input ligand: FMN 200 uM) and 19 nM (input ligand: none).
With “AACCGGGCGGCAGGAUAUCCAGAUUAAUUGUGGUAGUCCUGACAUGAGGAUCACCCAUGUGAAAAGGAGAAGGGCCGGAAAUUA [Onona] (Eterna round: R96, puzzle: Exclusion NG 2)”, the “apparent KD of MS2 coat protein” value by setting is: (input ligand: FMN 200 uM) 437 nM; under setting [1], 64.1 nM; (input ligand: none) 122 nM.
With “AACCUAUGAGGAUAUACAUGAGGAUCACCCAUGUGUGAGCGUAUCUCAUCACCAAAUUGUAGAAGGCAUGGCGG [Eternabot (L1) Solution 38] (Eterna round: R97, puzzle: Exclusion 3)”, the “apparent KD of MS2 coat protein” value (input ligand: FMN 200 uM) stood at 68.3 nM and the “apparent KD of MS2 coat protein” value (input ligand: none) came out at 41.4 nM.
Regarding “AACCUGAGGCAAAGCUUUAGGUGUACAUGAGGAUCACCCAUGUAGGAUAUGGUAGGCUUUGCUUACCAGAAGGACAUUGGCGUA [Mat - Exclusion NG 3 - Mod of JL - D42] (Eterna round: R96, puzzle: Exclusion NG 3)”, the “apparent KD of MS2 coat protein” value is, setting by setting: (input ligand: FMN 200 uM) 345 nM; under setting [1], 70.5 nM; (input ligand: none) 91.7 nM.
As for “AACCUGAGGCUUUGCUUUAGGUCUACAUGAGGAUCACCCAUGUAGGAUAUGGUAGGCUUUGCUUACCAGAAGGACAUGGUAAUU [JL ENG3 1.13] (Eterna round: R96, puzzle: Exclusion NG 3)”, the “apparent KD of MS2 coat protein” value by setting is: (input ligand: FMN 200 uM) 323 nM; under setting [1], 47.7 nM; (input ligand: none) 65.5 nM.
On to “AACCUGAGGCUUUGCUUUAGGUGAACAUGAGGAUCACCCAUGUAGGAUAUGGUAGGCUUUGCUUACCAGAAGGACAUAUUAAUU [JL ENG3 1.12] (Eterna round: R96, puzzle: Exclusion NG 3)”, for which the “apparent KD of MS2 coat protein” value under setting [1] stood at 30.6 nM.
On to “AACCUGAGGCUUUGCUUUAGGUGUACAUGAGGAUCACCCAUGUAGGAUAUGGUAGGCAAAGCUUACCAGAAGGACAUUGGCGUA [Mat - Exclusion NG 3 - Mod of JL - D40] (Eterna round: R96, puzzle: Exclusion NG 3)”, for which the “apparent KD of MS2 coat protein” value is, setting by setting: (input ligand: FMN 200 uM) 342 nM; under setting [1], 94.7 nM; (input ligand: none) 107 nM.
For the sequence “AACCUGAGGCUUUGCUUUAGGUGUACAUGAGGAUCACCCAUGUAGGAUAUGGUAGGCUUUGCUUACCAGAAGGACAUUGGCGUA [Mat - Exclusion NG 3 - Mod of JL - D39] (Eterna round: R96, puzzle: Exclusion NG 3)”, the “apparent KD of MS2 coat protein” value runs as follows: (input ligand: FMN 200 uM) 144 nM; under setting [1], 66.4 nM; (input ligand: none) 77.2 nM.
On to “AACCUGAGGCUUUGCUUUAGGUUUACAUGAGGAUCACCCAUGUAGGAUAUGGUAGGCUUUGCUUACCAGAAGGACAUGUUAAUU [Mat - Exclusion NG 3 - Mod of JL - D26] (Eterna round: R96, puzzle: Exclusion NG 3)”, for which the “apparent KD of MS2 coat protein” value is, setting by setting: (input ligand: FMN 200 uM) 241 nM; under setting [1], 25 nM; (input ligand: none) 44.2 nM.
For the sequence “AACGAGGCAGGAUAUACAUGAGGAUCACCCAUGUGCUUGCAUGGCGUGGGACGUCAACGUAGAAGGGCCAUGCC [EX3 #67] (Eterna round: R97, puzzle: Exclusion 3)”, the “apparent KD of MS2 coat protein” value (input ligand: FMN 200 uM) amounted to 43.1 nM and the “apparent KD of MS2 coat protein” value (input ligand: none) came out at 45.6 nM.
In the case of “AACGAUACGCUCAUAAGAACAUGAGGAUCACCCAUGUGUGGUGAGGAUAUCCACCCAGAGGGAAAGGAGAAGGUACCAGUGGGC [Ries] (Eterna round: R96, puzzle: Exclusion NG 3)”, the “apparent KD of MS2 coat protein” value turned out to be 31.3 nM (input ligand: FMN 200 uM), 61.8 nM under setting [1] and 61 nM (input ligand: none).
Regarding “AACGAUCUAGGAUAUACAUGAGGAUCACCCAUGUAAGAGCCCAAACCAGGCUCCCUCUGUAGAAGGAGGUCAAA [Teleerre] (puzzle: Exclusion 3)”, the “apparent KD of MS2 coat protein” value under setting [2] stood at 40.8 nM.
As to “AACGAUCUAGGAUAUACAUGAGGAUCACCCAUGUAAGAGCCCGAACCGGGCUCCCUCUGUAGAAGGAGGUCAAA [Rileququve] (puzzle: Exclusion 3)”, the “apparent KD of MS2 coat protein” value under setting [2] is 27.3 nM.
As for “AACGCGUCAGGAUAUAGCGAAACUUAGGUAGUACAACCAUACUAGAAGGGACAUGAGGAUCACCCAUGUGGGUA [JR_Exc004_Sub210] (Eterna round: R96, puzzle: Exclusion 4)”, the “apparent KD of MS2 coat protein” value is, setting by setting: (input ligand: FMN 200 uM) 171 nM; under setting [1], 104 nM; (input ligand: none) 142 nM.
As to “AACGGGACAGGAUAUGUCACGGAGAACAUGAGGAUCACCCAUGUGGCUUCGUGGUCUGUUGCAGAAGGGUCGAAAU [Vebedi] (Eterna round: R97, puzzle: Exclusion 5)”, the “apparent KD of MS2 coat protein” value (input ligand: FMN 200 uM) is 19.6 nM and the “apparent KD of MS2 coat protein” value (input ligand: none) came to 11.9 nM.
For the sequence “AACGUCUAGGUAGGAUAUCCACCAACAGGUGGAAGGAUAUGUACGCAGAAGGUUCGCCAACAGGCGGAGAAGGACCUACGCGUA [pwkr exNG2 2xF7 2xFMN.30] (Eterna round: R96, puzzle: Exclusion NG 2)”, the “apparent KD of MS2 coat protein” value (input ligand: FMN 200 uM) was 274 nM, the “apparent KD of MS2 coat protein” value under setting [1] stood at 57.6 nM and the “apparent KD of MS2 coat protein” value (input ligand: none) came to 340 nM.
As to “AACGUGGCUUAGGAUAUUGCUACGCAAAAGUAACAAGAAGGAAGCACAUGAGGAUCACCCAUGUGAUUCGUUGA [Larevean] (puzzle: Exclusion 6)”, the “apparent KD of MS2 coat protein” value is 27.1 nM (Eterna round: R95, input ligand: FMN 200 uM); 12.2 nM under setting [2]; 13.3 nM (Eterna round: R95, input ligand: none).
As for “AACUAUGAAGGAUAUACAUGAGGAUCACCCAUGUUGAACUUGGCAUGUGCUCACAGAUGUAGAAGGUCAACCGU [Eternabot (Original) Solution 22] (Eterna round: R97, puzzle: Exclusion 3)”, the “apparent KD of MS2 coat protein” value runs as follows: (input ligand: FMN 200 uM) 128 nM; (input ligand: none) 43 nM.
For “AACUCACAUGAGGAUCACCCAUGUGAGGAUAUGGAUUCGCUGGCCGUAGCCAGUGGAUCCAGAAGGCGCGUGAU [JL-ex1-4.26] (Eterna round: R97, puzzle: Exclusion 1)”, the “apparent KD of MS2 coat protein” value runs as follows: (input ligand: FMN 200 uM) 56.7 nM; (input ligand: none) 56.9 nM.
